The source of these data is the nanobody polyreactivity screen of Harvey et al. (2022).

The nature of the data set: yeast display, Sf9 membrane polyspecificity reagent, FACS + sequencing; frameworks hold sequencing errors. Summed up: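 In a synthetic yeast display library (Saccharomyces cerevisiae BJ5465), nanobody expression was induced with galactose for 36–48 hours. FACS gates were set low and high (top ~1%) using anti-HA fluorescence for expression and streptavidin fluorescence for binding of the Sf9 membrane reagent. Each polyreactivity label is drawn from the gate of origin.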
“QVQLVESGGGLFQAGGRLRLICAASGRIFTTNAMGWYRQAPGKERELVPAISRSGGSTNYADSVKGRFTISRDNAKNTVYLQMNSLIPEDTAVYYCAAVPTCNSFRSSFYYWGQGTQVTVSS”: the “polyreactivity (PSR sort gate)” value was “high polyreactivity”.

Take “QVQLVESGGGLFQAGGSHRLSCAASGSTFYYKAMGWYRQAPGKESELVARISRSGGSTYADSVKGRFTISRDNAKNNVYLQMNSLKPEDTAVYYCNKRGFYTPSVSYDYWGQGTQVTVSS”: the “polyreactivity (PSR sort gate)” value is “low polyreactivity”.

Consider “QVQLVESGGGLFQAGGSLRLICAASGRIFDVNAMGWYRQAPGKERELVAAISWSGGITYYADSVKGRFTISRDNAKNTVYLQINSLKPEDTAVYYCAADKYQGYTFYQGYPGGGGYWGQGTQVTVSS”, for which the “polyreactivity (PSR sort gate)” value is “low polyreactivity”.

With “QVQLVESGGGLFQAGGSLRLNCAASGSIFGSYAMVWYIQAPGKELELVAAITSDGITNYADSVKGRFTISRDNEKNTDYLQMNSLKPEDTAVYYCAAPGPLGGSDYWGQGTQVTVSS”, the “polyreactivity (PSR sort gate)” value is reported as “low polyreactivity”.

On to “QVQLVESGGGLFQAGGSLRLSCAANGSIFDYYAMGWYRQSPGKERELVAAITRSGVRTYYADSVKGRFTISRDNAKNTVYLQMNSMKPEDTAVYYCGAVYYPLSFDNDYWGQGTQVTVSS”, for which the “polyreactivity (PSR sort gate)” value is listed as “high polyreactivity”.

As to “QVQLVESGGGLFQAGGSLRLSCAASGFIFLVNAMGWYRPAPGKERELVAAISKSTGGTYYADSVKGRFTISRDNAKNTVYLQMYSLKPEDTAVYSCAADEVYPVQRDMDYWGQGTQETVSS”, the “polyreactivity (PSR sort gate)” value is “low polyreactivity”.

On to “QVQLVESGGGLFQAGGSLRLSCAASGFTFIYYAMGSYRQAPGKATELVSAITHSGGSTYYADSVKGRFTISRDNAKTTVSLQMNSLNPEDTAVYYCAARLTWSRYQKYRTSSWQSYYWGQGTQVTVSS”, for which the “polyreactivity (PSR sort gate)” value is reported as “high polyreactivity”.

As for “QVQLVESGGGLFQAGGSLRLSCAASGFTVRRYTMGWYRPATGKEREMVATISLSDGNTYYADSVKGRFTISRDNAKNTVYLQMNRLKAEDTAFYDCNAYSQSWNFYGDGDYWGQGTQVTVSS”, the “polyreactivity (PSR sort gate)” value is given as “low polyreactivity”.

With “QVQLVESGGGLFQAGGSLRLSCAASGGTFNFYAMGWYRQAPGKERELVARIDSGVSTNYADTVKGRFTISRDNAKNTVYLQMNSLKPEDTAVYYCNAERYRSRRYPYRYLYYYWGQGTQVTVSS”, the “polyreactivity (PSR sort gate)” value is “high polyreactivity”.

Take “QVQLVESGGGLFQAGGSLRLSCAASGIIFRYYAMGWSRQAPGKEREFVASINFSGSSTYYADSVKGRFTISRDKAKNTVYLQMNSLKPEDTAVYYCAAGRRWLYDYWGQGTQVTVSS”: the “polyreactivity (PSR sort gate)” value is “high polyreactivity”.

Consider “QVQLVESGGGLFQAGGSLRLSCAASGLIFRAYAMVWYRQSPGKERELVADITRSGGRTYYADSVKGRFTISRDNAKNTVYLQMNSLKPEDTAVYYCAAYVYSYWFYRGYEYWGQGTQVTVSS”, for which the “polyreactivity (PSR sort gate)” value is “high polyreactivity”.

For the sequence “QVQLVESGGGLFQAGGSLRLSCAASGLTFYRYVMGWYRQAPGKERELVAAISDSGGSTYYADSVKGRFTISRDNAKNTVYLQMNSLKPEDTAVYYCAAEAPSFVYYSRYDYWGQGTQVTVSS”, the “polyreactivity (PSR sort gate)” value is on record as “high polyreactivity”.

As for “QVQLVESGGGLFQAGGSLRLSCAASGRIFGGYAMGWYRQAPGTERELVAAIDWDGGSTYYADSVKGRFTISRDNEKNTVYLQMNSLKPEDTAVYYSNAVKWTWWSSSGDYDYWGQGTQVTVSS”, the “polyreactivity (PSR sort gate)” value was “high polyreactivity”.

For “QVQLVESGGGLFQAGGSLRLSCAASGRIFQGYVMGRYRQAPGKERELVAVISRRGGITNYADSVKGRFTISSDNAKNSVYLQIYRLKPEDTAVYYCNSVTRVYNNGQYGYWGQGTQVTVSS”, the “polyreactivity (PSR sort gate)” value is “high polyreactivity”.

Consider “QVQLVESGGGLFQAGGSLRLSCAASGRIFVFYTMGWYRQAPGKERELVASINSGGSTYYADSVKGRFTISRDNAKNTVYLQMNSLKPEDTAVYYCAASRTRRGVRQFDYWGQGTQVTVSS”, for which the “polyreactivity (PSR sort gate)” value was “high polyreactivity”.

“QVQLVESGGGLFQAGGSLRLSCAASGRIFYSNAMGWYRQAPGKERELVASISPNSGPTYYADSVKGRFTISRDNAKNTVYLQMNSLKPEVTAVYYCAARGGYYQDGLVTGVAEYGYCGQGTQVTVSS”: the “polyreactivity (PSR sort gate)” value is “low polyreactivity”.

As to “QVQLVESGGGLFQAGGSLRLSCAASGRISYGNAMGWYRQAPGKEMELVAAISGSGGSKYYADSVKGRFTISRDNAKNTVYLQMNSLKPEDTAVYYCAADSRKRQGYGYWGQGTQVTVSS”, the “polyreactivity (PSR sort gate)” value is given as “low polyreactivity”.

Turning to “QVQLVESGGGLFQAGGSLRLSCAASGRTFAYYTMGWYRQAPGKERELVAAITSSGGSTYYADSEKGRFTISRDNAKNTVYLQMNSLKPEDTAVYYCNAYGLRWASRLGYDYWGQGTQVTVSS”, the “polyreactivity (PSR sort gate)” value was “high polyreactivity”.

“QVQLVESGGGLFQAGGSLRLSCAASGRTFISNPMGWYRQAPGKVWEMVASITSGGSTNYADSVKGRFTISRDNAKNSVYVHMYSQNREDTAVYYCAAEGLVVGWTEEDYWGQGTQVTVSS”: the “polyreactivity (PSR sort gate)” value was “low polyreactivity”.

For the sequence “QVQLVESGGGLFQAGGSLRLSCAASGRTITYYAMGWYRQAPGKERELVAAITWSGGSTYYADSVKGRFTISRDNAKNTVYLQMNSMKPEDTAVYYCAKEFYYSSGFDYWGQGTQVTVSS”, the “polyreactivity (PSR sort gate)” value is given as “low polyreactivity”.

Consider “QVQLVESGGGLFQAGGSLRLSCAASGSIFDVNVMGWYRQAPGKERELVASINISGASTYYADSVTGRFTISRDNAKNTVYLQMNSLKPEDTAVYYCAVTYGVPSFRYGYWGQVTQVTVSS”, for which the “polyreactivity (PSR sort gate)” value is “low polyreactivity”.

For “QVQLVESGGGLFQAGGSLRLSCAASGSIFFYNNMGWYRQAPGKERELVDAISASGGRTYYADSVKGRFTISRDNAKNSVYLQMYSLKPEDTAVYYCAVRVPYRGYTRYDYWGQGTQVTVSS”, the “polyreactivity (PSR sort gate)” value is “high polyreactivity”.

“QVQLVESGGGLFQAGGSLRLSCAASGSIFNRYAMGWYRQAPGKERELVAAISSGGRTKYADSVKGRFTISRDNAKNTVYLQMNSLKPEDTAVYYCNAAYFLSGTCRTFDYWGQGTQVTVSS”: the “polyreactivity (PSR sort gate)” value was “high polyreactivity”.

In the case of “QVQLVESGGGLFQAGGSLRLSCAASGSIFQYYTMRWYRQAPGKERELVATINNNGGRTYYADSVKGRFTISRDNAMNSVYFQMYSLKPVDTAVYYCATDIWRYYRGWEDYWGQGTEVTVSS”, the “polyreactivity (PSR sort gate)” value is “high polyreactivity”.

As for “QVQLVESGGGLFQAGGSLRLSCAASGSIFRDNVMVWYIHAPGKERELVAVITSGGSTNYADSVKGRFTISRDNAKNTVYLQMNSLKPEDTAVYYCNAAKTGSQSRLEYWGQGTQVTVSS”, the “polyreactivity (PSR sort gate)” value is on record as “high polyreactivity”.

As for “QVQLVESGGGLFQAGGSLRLSCAASGSIFSWNDMGWYRQAPGKERELVAAINWNGGSTYYADSVKGRFTISRDNEKNSVYLQMNSLKPEYSEVYYCAAERSLYYVYSREYWGQGTQVTVSS”, the “polyreactivity (PSR sort gate)” value was “low polyreactivity”.

With “QVQLVESGGGLFQAGGSLRLSCAASGSIFTPNTMGWYRKAPGKERELVAAITIRGGSTYYADSLKGRFTISRDNAKNTVYLQMNSLKPEDTAVYYCATEYALRYYLVDYWGQGTQVTVSS”, the “polyreactivity (PSR sort gate)” value is reported as “low polyreactivity”.

Take “QVQLVESGGGLFQAGGSLRLSCAASGSIINIYAMGWYRQAPGKERELVATITGIADSTYYADSVKGRFTISRDNAKNTVYLQMNSLKPEDTAVYYCAADKYVADYDYWGQGSQVTVSS”: the “polyreactivity (PSR sort gate)” value is recorded as “low polyreactivity”.

As to “QVQLVESGGGLFQAGGSLRLSCAASGSTFWFNAMGWYRQAPGKERELVAAITSGDGTNYADSVKGRFTISRDNAKNTVYLQMNSLKPEVTAVYYCATVYADESGIEGYSWGQGTQVTVSS”, the “polyreactivity (PSR sort gate)” value is given as “low polyreactivity”.

“QVQLVESGGGLFQAGGSLRLSCADSGSTFSLYAMGWDRQAPGKDRELVAAITWSGGSTYYADSEKGRFTISRDNAKTTVYLQMTSLPPEDTAVYYCAAHRIGYYLRVSYRGKYDHWGQGTQVTVSS”: the “polyreactivity (PSR sort gate)” value was “low polyreactivity”.

Consider “QVQLVESGGGLFQAGGSLRLSCAPSGRIFTTYAMGWYRQAPGKDRELVAAISRSGGSSYYADSVKGRFTISRDNAKNTVYLQMKSLKQEDTAVYFCAAVPTSNSFRSSFYNWGQGTQVTVSS”, for which the “polyreactivity (PSR sort gate)” value is recorded as “high polyreactivity”.

Turning to “QVQLVESGGGLFQAGGSLRLSCAPSGRTFDYNAMGWYRQAPGKERELVAAISGSGTRTFYADSVKGRFTISRDNAKNTVYLQMNSLKPEDTAVYYCAASHGWSKSIFYYWGQGTQVTVSS”, the “polyreactivity (PSR sort gate)” value is reported as “high polyreactivity”.

Take “QVQLVESGGGLFQAGGSLRLSSAASGRIIRRNAMGWYRQAPGKEWDLDAAITSSGGNTYYADSVKGRFTISRDNAKNTVYLQMNSLKPEDSAVYYCATYPGNWDLDYWGQGTQVTVSS”: the “polyreactivity (PSR sort gate)” value was “high polyreactivity”.

With “QVQLVESGGGLFQAGGSLRLSSAASGTRYYAMGWYRPAPGKERELVAGIRWRDGGTYYADSVKGRFTISRDNAKNTFYLQLNSLKPEDTAVYYCNASVTSWYKRAGYYWGQGSQVTVSS”, the “polyreactivity (PSR sort gate)” value is given as “high polyreactivity”.

As for “QVQLVESGGGLFQAGGSLRLTCAASGFTFIKYSMGWYRQAPGKEREFVATISWNGGNTYYADSVKGRFTISRDNAKNTVYLQMNSLKPEVTAVYYCAARVKYRTRGGTVVSYDYWGQGTQVTVSS”, the “polyreactivity (PSR sort gate)” value is given as “high polyreactivity”.

Regarding “QVQLVESGGGLFQAGGSLRLTCAASGITFYYYAMGWYRQAPGKERELVAAISVRGTRTFYADCVKWRFTISRDNAKNTVYLQMNSLKPEDTEVYYCNKSVSNDDGLEYWGQGTQVTVSS”, the “polyreactivity (PSR sort gate)” value is recorded as “high polyreactivity”.

Take “QVQLVESGGGLFQAGGSLSLSCAATGIIFRSYAMGWYRQAPGKEREMVAAITRSGGSTYADSVKGRFTISRDNAKNTVDLQMNSLKPEDTAVYYCAADRYSGWVYRRDYWGQGTQVTVSS”: the “polyreactivity (PSR sort gate)” value was “low polyreactivity”.

Regarding “QVQLVESGGGLFQAGGTLRLSCAASGRIFVYYAMGWYRQAPGKERELVASITTGGRTYYADSVKGRFTISRDNAKNTVYLQMNSLKPEDTAVYYCAARKYSYTWYDYWGQGTQVTVSS”, the “polyreactivity (PSR sort gate)” value is recorded as “high polyreactivity”.

With “QVQLVESGGGLFQAGGTLRLSCASSGLIFSRYAMGWYRQSPGKEWELVAGISTSGGRTYYADSVKGRFTISRYNAKNTVYFQMNSLKPEDTAVYYCAAQFKYRQINSYLLGDYWGQGTQVTVSS”, the “polyreactivity (PSR sort gate)” value is on record as “high polyreactivity”.

With “QVQLVESGGGLFQAGVSLRLSCAASGLIFYGNAMGWYRQAPGKERELVAAITGGGGNTYYADSVKGRFTISRYYAKITVYLQMNSLKPEDTAVYYCATATSTAYVRYYYWGQGTQVTVSS”, the “polyreactivity (PSR sort gate)” value was “high polyreactivity”.
